Results reported in article PMC10582078.

How the values were obtained:
IP/IB, baseline = conditions: glycan lost; control: WT NF-L
[1] = IFA of co-assembled filaments, SW13 vim− cells; conditions: glycan lost; control: WT NF-L
[2] = live-cell imaging, rat hippocampal neuron axons; conditions: glycan lost; control: WT NF-L
IP/IB = conditions: glycan gained; control: WT NF-L without OGT
[3] = IFA of filaments, NEFL−/− SH-SY5Y; conditions: glycan gained; control: WT NF-L without OGT
[4] = differential extraction, urea-fraction NF-L, 293T; conditions: glycan gained; control: WT NF-L without OGT
[5] = differential extraction, NEFL−/− 293T, no OGT; conditions: glycan lost; control: WT NF-L without OGT

B1: neurofilament-light (NF-L): NF-L4A (protein)
parent chain: MSSFSYEPYYSTSYKRRYVETPRVHISSVRSGYSTARSAYSSYSAPVSSSLSVRRSYSSSSGSLMPSLENLDLSQVAAISNDLKSIRTQEKAQLQDLNDRFASFIERVHELEQQNKVLEAELLVLRQKHSEPSRFRALYEQEIRDLRLAAEDATNEKQALQGEREGLEETLRNLQARYEEEVLSREDAEGRLMEARKGADEAALARAELEKRIDSLMDEISFLKKVHEEEIAELQAQIQYAQISVEMDVTKPDLSAALKDIRAQYEKLAAKNMQNAEEWFKSRFTVLTESAAKNTDAVRAAKDEVSESRRLLKAKTLEIEACRGMNEALEKQLQELEDKQNADISAMQDTINKLENELRTTKSEMARYLKEYQDLLNVKMALDIEIAAYRKLLEGEETRLSFTSVGSITSGYSQSSQVFGRSAYGGLQTSSYLMSTRSFPSYYTSHVQEEQIEVEETIEAAKAEEAKDEPPSEGEAEEEEKDKEEAEEEEAAEEEEAAKEESEEAKEEEEGGEGEEGEETKEAEEEEKKVEGAGEEQAAKKKD
- other: NF-L phosphorylation (IP/IB, baseline): increases
- oligomerisation [1]: decreases
- other: suppression of mitochondrial motility [2]: abolishes

B2: neurofilament-light (NF-L): OGT co-expression (protein)
parent chain: MSSFSYEPYYSTSYKRRYVETPRVHISSVRSGYSTARSAYSSYSAPVSSSLSVRRSYSSSSGSLMPSLENLDLSQVAAISNDLKSIRTQEKAQLQDLNDRFASFIERVHELEQQNKVLEAELLVLRQKHSEPSRFRALYEQEIRDLRLAAEDATNEKQALQGEREGLEETLRNLQARYEEEVLSREDAEGRLMEARKGADEAALARAELEKRIDSLMDEISFLKKVHEEEIAELQAQIQYAQISVEMDVTKPDLSAALKDIRAQYEKLAAKNMQNAEEWFKSRFTVLTESAAKNTDAVRAAKDEVSESRRLLKAKTLEIEACRGMNEALEKQLQELEDKQNADISAMQDTINKLENELRTTKSEMARYLKEYQDLLNVKMALDIEIAAYRKLLEGEETRLSFTSVGSITSGYSQSSQVFGRSAYGGLQTSSYLMSTRSFPSYYTSHVQEEQIEVEETIEAAKAEEAKDEPPSEGEAEEEEKDKEEAEEEEAAEEEEAAKEESEEAKEEEEGGEGEEGEETKEAEEEEKKVEGAGEEQAAKKKD
- other: NF-L phosphorylation (IP/IB): decreases
- oligomerisation [3]: decreases
- oligomerisation [4]: decreases

B3: neurofilament-light (NF-L): S431A (protein)
parent chain: MSSFSYEPYYSTSYKRRYVETPRVHISSVRSGYSTARSAYSSYSAPVSSSLSVRRSYSSSSGSLMPSLENLDLSQVAAISNDLKSIRTQEKAQLQDLNDRFASFIERVHELEQQNKVLEAELLVLRQKHSEPSRFRALYEQEIRDLRLAAEDATNEKQALQGEREGLEETLRNLQARYEEEVLSREDAEGRLMEARKGADEAALARAELEKRIDSLMDEISFLKKVHEEEIAELQAQIQYAQISVEMDVTKPDLSAALKDIRAQYEKLAAKNMQNAEEWFKSRFTVLTESAAKNTDAVRAAKDEVSESRRLLKAKTLEIEACRGMNEALEKQLQELEDKQNADISAMQDTINKLENELRTTKSEMARYLKEYQDLLNVKMALDIEIAAYRKLLEGEETRLSFTSVGSITSGYSQSSQVFGRSAYGGLQTSSYLMSTRSFPSYYTSHVQEEQIEVEETIEAAKAEEAKDEPPSEGEAEEEEKDKEEAEEEEAAEEEEAAKEESEEAKEEEEGGEGEEGEETKEAEEEEKKVEGAGEEQAAKKKD
- oligomerisation [5]: no change

B4: neurofilament-light (NF-L): S34A (protein)
parent chain: MSSFSYEPYYSTSYKRRYVETPRVHISSVRSGYSTARSAYSSYSAPVSSSLSVRRSYSSSSGSLMPSLENLDLSQVAAISNDLKSIRTQEKAQLQDLNDRFASFIERVHELEQQNKVLEAELLVLRQKHSEPSRFRALYEQEIRDLRLAAEDATNEKQALQGEREGLEETLRNLQARYEEEVLSREDAEGRLMEARKGADEAALARAELEKRIDSLMDEISFLKKVHEEEIAELQAQIQYAQISVEMDVTKPDLSAALKDIRAQYEKLAAKNMQNAEEWFKSRFTVLTESAAKNTDAVRAAKDEVSESRRLLKAKTLEIEACRGMNEALEKQLQELEDKQNADISAMQDTINKLENELRTTKSEMARYLKEYQDLLNVKMALDIEIAAYRKLLEGEETRLSFTSVGSITSGYSQSSQVFGRSAYGGLQTSSYLMSTRSFPSYYTSHVQEEQIEVEETIEAAKAEEAKDEPPSEGEAEEEEKDKEEAEEEEAAEEEEAAKEESEEAKEEEEGGEGEEGEETKEAEEEEKKVEGAGEEQAAKKKD
- oligomerisation [5]: no change

B5: neurofilament-light (NF-L): NF-L5A (protein)
parent chain: MSSFSYEPYYSTSYKRRYVETPRVHISSVRSGYSTARSAYSSYSAPVSSSLSVRRSYSSSSGSLMPSLENLDLSQVAAISNDLKSIRTQEKAQLQDLNDRFASFIERVHELEQQNKVLEAELLVLRQKHSEPSRFRALYEQEIRDLRLAAEDATNEKQALQGEREGLEETLRNLQARYEEEVLSREDAEGRLMEARKGADEAALARAELEKRIDSLMDEISFLKKVHEEEIAELQAQIQYAQISVEMDVTKPDLSAALKDIRAQYEKLAAKNMQNAEEWFKSRFTVLTESAAKNTDAVRAAKDEVSESRRLLKAKTLEIEACRGMNEALEKQLQELEDKQNADISAMQDTINKLENELRTTKSEMARYLKEYQDLLNVKMALDIEIAAYRKLLEGEETRLSFTSVGSITSGYSQSSQVFGRSAYGGLQTSSYLMSTRSFPSYYTSHVQEEQIEVEETIEAAKAEEAKDEPPSEGEAEEEEKDKEEAEEEEAAEEEEAAKEESEEAKEEEEGGEGEEGEETKEAEEEEKKVEGAGEEQAAKKKD
- other: NF-L phosphorylation (IP/IB, baseline): increases

B6: neurofilament-light (NF-L): S27A (protein)
parent chain: MSSFSYEPYYSTSYKRRYVETPRVHISSVRSGYSTARSAYSSYSAPVSSSLSVRRSYSSSSGSLMPSLENLDLSQVAAISNDLKSIRTQEKAQLQDLNDRFASFIERVHELEQQNKVLEAELLVLRQKHSEPSRFRALYEQEIRDLRLAAEDATNEKQALQGEREGLEETLRNLQARYEEEVLSREDAEGRLMEARKGADEAALARAELEKRIDSLMDEISFLKKVHEEEIAELQAQIQYAQISVEMDVTKPDLSAALKDIRAQYEKLAAKNMQNAEEWFKSRFTVLTESAAKNTDAVRAAKDEVSESRRLLKAKTLEIEACRGMNEALEKQLQELEDKQNADISAMQDTINKLENELRTTKSEMARYLKEYQDLLNVKMALDIEIAAYRKLLEGEETRLSFTSVGSITSGYSQSSQVFGRSAYGGLQTSSYLMSTRSFPSYYTSHVQEEQIEVEETIEAAKAEEAKDEPPSEGEAEEEEKDKEEAEEEEAAEEEEAAKEESEEAKEEEEGGEGEEGEETKEAEEEEKKVEGAGEEQAAKKKD
- oligomerisation [5]: no change

B7: neurofilament-light (NF-L): S48A (protein)
parent chain: MSSFSYEPYYSTSYKRRYVETPRVHISSVRSGYSTARSAYSSYSAPVSSSLSVRRSYSSSSGSLMPSLENLDLSQVAAISNDLKSIRTQEKAQLQDLNDRFASFIERVHELEQQNKVLEAELLVLRQKHSEPSRFRALYEQEIRDLRLAAEDATNEKQALQGEREGLEETLRNLQARYEEEVLSREDAEGRLMEARKGADEAALARAELEKRIDSLMDEISFLKKVHEEEIAELQAQIQYAQISVEMDVTKPDLSAALKDIRAQYEKLAAKNMQNAEEWFKSRFTVLTESAAKNTDAVRAAKDEVSESRRLLKAKTLEIEACRGMNEALEKQLQELEDKQNADISAMQDTINKLENELRTTKSEMARYLKEYQDLLNVKMALDIEIAAYRKLLEGEETRLSFTSVGSITSGYSQSSQVFGRSAYGGLQTSSYLMSTRSFPSYYTSHVQEEQIEVEETIEAAKAEEAKDEPPSEGEAEEEEKDKEEAEEEEAAEEEEAAKEESEEAKEEEEGGEGEEGEETKEAEEEEKKVEGAGEEQAAKKKD
- oligomerisation [5]: no change

B8: neurofilament-light (NF-L): T21A (protein)
parent chain: MSSFSYEPYYSTSYKRRYVETPRVHISSVRSGYSTARSAYSSYSAPVSSSLSVRRSYSSSSGSLMPSLENLDLSQVAAISNDLKSIRTQEKAQLQDLNDRFASFIERVHELEQQNKVLEAELLVLRQKHSEPSRFRALYEQEIRDLRLAAEDATNEKQALQGEREGLEETLRNLQARYEEEVLSREDAEGRLMEARKGADEAALARAELEKRIDSLMDEISFLKKVHEEEIAELQAQIQYAQISVEMDVTKPDLSAALKDIRAQYEKLAAKNMQNAEEWFKSRFTVLTESAAKNTDAVRAAKDEVSESRRLLKAKTLEIEACRGMNEALEKQLQELEDKQNADISAMQDTINKLENELRTTKSEMARYLKEYQDLLNVKMALDIEIAAYRKLLEGEETRLSFTSVGSITSGYSQSSQVFGRSAYGGLQTSSYLMSTRSFPSYYTSHVQEEQIEVEETIEAAKAEEAKDEPPSEGEAEEEEKDKEEAEEEEAAEEEEAAKEESEEAKEEEEGGEGEEGEETKEAEEEEKKVEGAGEEQAAKKKD
- oligomerisation [5]: no change
